± gives the uncertainty stated by the source.
Experiment: protein stability index of a GFP-peptide fusion (yeast GPS) (PSI 1-4); higher = more stable; sorted into four equal gates, so the index is relative within each strain
How it was run: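 Mid-log yeast cultures in leucine-free medium, carrying a pooled plasmid library, were sorted into four equal gates by their GFP/Cherry fluorescence ratio. Each plasmid expressed Cherry along with GFP fused upstream of a tiled 17-residue yeast protein peptide. Plasmids recovered from each gate were PCR-amplified and Illumina-sequenced, with reads assigned to strains by barcodes. The protein stability index was obtained by summing each gate's read frequency weighted by its gate number.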

Row | Sequence | protein stability index (doa10∆) | protein stability index (pdr5∆) | protein stability index (san1∆) | protein stability index (ubr1∆)
1 | KEALLGQLLKDHLIIEP [ARP9] | 1.79 ± 0.12 | 1.51 ± 0.077 | 1.18 ± 0.16 | 2.45 ± 0.094
2 | GKMVRAQDVALAKKWFL [PRP8] | 2.34 ± 0.12 | 2.51 ± 0.14 | 2.57 ± 0.23 | 3.05 ± 0.24
3 | PPQQTYHFPIFNKYADP [RPN4] | 2.52 ± 0.046 | 2.8 ± 0.042 | 2.59 ± 0.034 | 2.65 ± 0.03
4 | STYRLEDVLSSFYRVEK [SSN2] | 2.09 ± 0.074 | 2.34 ± 0.073 | 1.87 ± 0.1 | 2.48 ± 0.094
5 | IVLIKGISSAYIKSATL [SNU114] | 1.92 ± 0.087 | 2.05 ± 0.069 | 2.5 ± 0.07 | 2.52 ± 0.064
6 | APSANQGDEALSVDDIR [RTT102] | 3.15 ± 0.093 | 3.33 ± 0.1 | 2.98 ± 0.088 | –
7 | KVTLNKETQQYELEFDT [BRR2] | 3.13 ± 0.058 | 3.01 ± 0.056 | 3.15 ± 0.035 | 3.19 ± 0.038
8 | GPVAAQFTKVIDEPIKS [FAS1] | 1.8 ± 0.2 | 2.41 ± 0.092 | 2.15 ± 0.14 | 2 ± 0.052
9 | DQLSTISMILRNISFSD [SWI1] | 1.85 ± 0.052 | 2.44 ± 0.072 | 2.04 ± 0.069 | 2.31 ± 0.051
10 | IQKQIETIQADLNHVTE [SMC2] | 2.96 ± 0.047 | 3.16 ± 0.053 | 2.96 ± 0.037 | 2.87 ± 0.039
11 | KELDQELIIDPLFKKAL [BRN1] | 3.23 ± 0.071 | 3.07 ± 0.073 | 3.13 ± 0.11 | 3.07 ± 0.052
12 | EELINAAKGSSTSYAIK [RPS5] | 2.66 ± 0.077 | 1.88 ± 0.051 | 1.43 ± 0.068 | 1.76 ± 0.044
13 | MAGVKAYELRTKSKEQL [RPL35A] | 3 ± 0.11 | 3.38 ± 0.1 | 2.94 ± 0.067 | 3.17 ± 0.13
14 | EKVNNNATLTPNDSNDE [SWI1] | 3.26 ± 0.07 | 3.14 ± 0.057 | 3.11 ± 0.063 | 3.16 ± 0.047
15 | TRNSLGNVIQFIYGEDG [RPO21] | 3.01 ± 0.06 | 2.92 ± 0.053 | 3.25 ± 0.042 | 3.28 ± 0.037
16 | FLNTPNNNINENELFND [SSN2] | 2.94 ± 0.059 | 3.06 ± 0.05 | 2.86 ± 0.054 | 2.88 ± 0.055
17 | RIGKHRKHPGGRGMAGG [RPL28] | 2.92 ± 0.12 | 2.63 ± 0.24 | 2.97 ± 0.1 | 3.22 ± 0.16
18 | KREGKTRLLNIVMQLRK [ISW2] | 2.7 ± 0.078 | 3.02 ± 0.063 | 3.11 ± 0.054 | 2.97 ± 0.057
19 | IRKSETSGRYASYRICM [RPB5] | 2.57 ± 0.088 | 2.89 ± 0.063 | 2.9 ± 0.072 | 2.97 ± 0.086
20 | VDLLQFPWLNAIKYRPT [POP3] | 2.33 ± 0.07 | 2.42 ± 0.091 | 2.36 ± 0.15 | 1.84 ± 0.11
21 | HLKHENANDETTAVEDE [RPB4] | 2.92 ± 0.067 | 3.08 ± 0.093 | 3.17 ± 0.086 | 3.17 ± 0.14
22 | IQEYQLCDNFNHFSLSY [COR1] | 2.35 ± 0.049 | 2.61 ± 0.053 | 2.44 ± 0.055 | 2.27 ± 0.057
23 | ATYSNEFKCMSVITAQQ [YGL100W/SEH1] | 1.75 ± 0.053 | 1.48 ± 0.042 | 1.46 ± 0.085 | 2.01 ± 0.031
24 | QEVTNEAPFLTSGTSSE [GAL11] | 3.35 ± 0.079 | 3.35 ± 0.08 | 3.42 ± 0.067 | 3.13 ± 0.073
25 | KEMTLQKNMNDLLRSQL [YIL149C/MLP2] | 3.08 ± 0.049 | 2.43 ± 0.052 | 2.19 ± 0.082 | 2.64 ± 0.046
26 | FAKEHNATVNLAMEAIL [YJR042W/NUP85] | 2.93 ± 0.094 | 2.66 ± 0.1 | 2.71 ± 0.098 | 2.63 ± 0.092

Row | Sequence | protein stability index (doa10∆) | protein stability index (pdr5∆) | protein stability index (san1∆) | protein stability index (ubr1∆)
27 | TLSHLRRTNTPIGRDGK [RPB2] | 2.14 ± 0.043 | 2.26 ± 0.038 | 2.24 ± 0.057 | 2.08 ± 0.036
28 | NIGTPSFNMAQIPQQLY [SNF5] | 1.93 ± 0.068 | 2.08 ± 0.072 | 2.17 ± 0.056 | 2.04 ± 0.047
29 | SWSSSAAVIMRCKIYFF [PCI8] | 1.24 ± 0.055 | 1.71 ± 0.058 | 1.34 ± 0.11 | 1.28 ± 0.047
30 | DFGFDLDIEKEAPAGNI [MCD1] | 2.76 ± 0.26 | – | – | 3.3 ± 0.15
31 | VINLKQIAKFVVGLGER [RPT1] | 2.75 ± 0.14 | 3.39 ± 0.18 | 3.12 ± 0.3 | –
32 | NEKMQLLKDIFANNLKS [SIR4] | 2.28 ± 0.048 | 2.41 ± 0.051 | 1.95 ± 0.083 | 2.19 ± 0.048
33 | DPLVSLMMVEKVPDSTY [RPT6] | 2.59 ± 0.087 | 2.93 ± 0.064 | 2.49 ± 0.069 | 2.89 ± 0.063
34 | LTGSPNNPLVQKKNFLF [ARP7] | 2.9 ± 0.092 | 2.89 ± 0.1 | 2.27 ± 0.16 | 3.18 ± 0.066
35 | FLDSQRVWAEYATKRQE [PRP8] | 1.54 ± 0.078 | 2 ± 0.07 | 1.92 ± 0.097 | 2.07 ± 0.083
36 | NKEMETQRIMTNVIAFA [YLR018C/POM34] | 2.33 ± 0.1 | 2.46 ± 0.07 | 1.99 ± 0.15 | 2.46 ± 0.058
37 | SILEEKIAVLNNDKREI [SMC1] | 3.21 ± 0.071 | 3.38 ± 0.057 | 3.25 ± 0.051 | 3.33 ± 0.061
38 | AVKNKYNVGKQLSNEII [PRP28] | 2.08 ± 0.066 | 2.52 ± 0.074 | 2.17 ± 0.088 | 2.3 ± 0.069
39 | QPNEISFKYLSNNDEDD [RGR1] | 2.37 ± 0.053 | 2.29 ± 0.041 | 1.88 ± 0.072 | 2.36 ± 0.039
40 | LHGLTPTAKDVEVIKQL [GAL11] | 3.08 ± 0.078 | 2.64 ± 0.13 | – | 2.26 ± 0.078
41 | KNATEELLRLANEQLKL [CSN12] | 3 ± 0.071 | 2.93 ± 0.058 | 2.89 ± 0.077 | 2.8 ± 0.094
42 | IKAFMDSTIGNSKVDMK [IRR1] | 2.57 ± 0.27 | 2.45 ± 0.16 | – | 2.05 ± 0.19
43 | NFIVHSPMLKRIKITAN [GRR1] | 1.48 ± 0.072 | 1.2 ± 0.075 | 1.29 ± 0.13 | 1.19 ± 0.061
44 | KIHLYEKKLEDYCRILS [YGL172W/NUP49] | 1.54 ± 0.11 | 2.34 ± 0.12 | 2.3 ± 0.13 | 1.78 ± 0.19
45 | SFGNREEFINKLVKSMN [RPL7A] | 2.52 ± 0.11 | 2.6 ± 0.11 | 2.29 ± 0.18 | 2.76 ± 0.071
46 | SPKPYAVKYGLNHVVAL [RPL8A] | 2.22 ± 0.066 | 2.42 ± 0.06 | 2.44 ± 0.071 | 2.08 ± 0.044
47 | AEKSYLYDSLASTPSIR [RRP42] | 2.57 ± 0.15 | 2.33 ± 0.1 | 2.46 ± 0.19 | 3.2 ± 0.11
48 | TWIHSEIEELKSSIQNL [SMC3] | 2.27 ± 0.11 | 2.3 ± 0.068 | 2.29 ± 0.21 | 3.08 ± 0.11
49 | LIQEHDSRKNREQSSND [BRN1] | 3.38 ± 0.078 | 3.38 ± 0.06 | 3.19 ± 0.081 | 3.45 ± 0.094
50 | VICSVTGPIEPKARQEL [RRP46] | 2.79 ± 0.081 | 3.06 ± 0.11 | 2.75 ± 0.051 | 2.88 ± 0.054
51 | GGLQKGKLVVSQEMVPR [SIR3] | 3.03 ± 0.07 | 2.83 ± 0.13 | 2.32 ± 0.076 | 3.23 ± 0.12
52 | SDDIAENDNLDNVSKNA [YCG1] | 3.39 ± 0.088 | 3.34 ± 0.14 | 3.25 ± 0.063 | 3.23 ± 0.085

— the supplement of paper PMC9732359
